Reference: PMC12062237, “Phosphate-binding pocket on cyclin B governs CDK substrate phosphorylation and mitotic timing” (Nature Communications, 2025)
Substitutions are numbered along the chain they refer to. Names and notes keep the numbering of the source.

T1: Clb2 (aa 187-491), wild-type (S. cerevisiae, UniProt P24869 187-491)
T1 construct: Clb2, major mitotic B-type cyclin of S. cerevisiae, aa 187-491; also called wild-type Clb2; source: E. coli BL21(DE3) Star, pET28, purified (Ni-NTA, S200 gel filtration)
T1 sequence (looked up): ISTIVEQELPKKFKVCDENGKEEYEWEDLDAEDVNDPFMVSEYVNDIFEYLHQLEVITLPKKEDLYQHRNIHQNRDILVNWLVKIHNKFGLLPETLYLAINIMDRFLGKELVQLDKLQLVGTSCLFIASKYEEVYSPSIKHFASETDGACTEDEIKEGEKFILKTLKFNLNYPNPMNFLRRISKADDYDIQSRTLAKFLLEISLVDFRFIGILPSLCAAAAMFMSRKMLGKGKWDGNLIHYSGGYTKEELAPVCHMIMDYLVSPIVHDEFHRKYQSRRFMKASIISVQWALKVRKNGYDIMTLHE

T2: Clb2-pp mutant (R366A, R379A, K383A), aa 187-491 (S. cerevisiae, UniProt P24869 187-491, R366A | R379A | K383A)
T2 construct: also called PP mutant Clb2; source: E. coli BL21(DE3) Star, pET28, purified (Ni-NTA, S200 gel filtration)
T2 sequence (looked up): T1 sequence (looked up) with R180A, R193A, K197A

B1: Cks1, wild-type (natural protein, S. cerevisiae, UniProt P20486 1-150, looked up)
chain: MYHHYHAFQGRKLTDQERARVLEFQDSIHYSPRYSDDNYEYRHVMLPKAMLKVIPSDYFNSEVGTLRILTEDEWRGLGITQSLGWEHYECHAPEPHILLFKRPLNYEAELRAATAAAQQQQQQQQQQQQQQQQHQTQSISNDMQVPPQIS
notes: Cks1 of S. cerevisiae; also called wild-type Cks1; source: E. coli BL21(DE3) Star, purified (boiling, ammonium sulfate, S200 gel filtration)
B2: Cks1 mutant (R33E, S82E, R102A) (natural protein, S. cerevisiae, UniProt P20486 1-150, looked up)
chain: B1 chain with R33E, S82E, R102A
notes: also called mutant Cks1; source: E. coli BL21(DE3) Star, purified (boiling, ammonium sulfate, S200 gel filtration)
B3: Cdk1 (Cdc28), T169-phosphorylated (enzyme)
chain: not shown
modifications: phosphothreonine at 169 (by Cak1)
notes: Cdk1 (Cdc28) of S. cerevisiae, made as a GST-TEV-Cdk1 fusion; no TEV cleavage is described; the pooled fractions are called GST-Cdk1; also called GST-Cdk1; phosphorylated Cdk1; source: Sf9, baculovirus, purified (Glutathione Sepharose, S200 gel filtration); phosphorylated with purified Cak1

How the values were obtained:
Details in all cases: both partners purified
[1] = molecular target: T3, Clb2-Cdk1 complex, wild-type Clb2 (S. cerevisiae, UniProt P24869 187-491; P00546 1-298, phosphothreonine at 169 (by Cak1)); experiment: reconstitution of an active kinase complex by mixing; Clb2-Cdk1 combined with equimolar Cks1; no separate test of association
T3 construct: Clb2 of S. cerevisiae, aa 187-491; Cdk1 (Cdc28) of S. cerevisiae, made as a GST-TEV-Cdk1 fusion; formed before Cks1 was added; also called wild-type Clb2-Cdk1; active Clb2-Cdk1; source: assembled from purified Clb2 (E. coli) and purified Cak1-phosphorylated Cdk1 (Sf9), desalted

[2] = molecular target: T4, Clb2-Cdk1 complex, Clb2-pp mutant (S. cerevisiae, UniProt P24869 187-491; P00546 1-298, R366A | R379A | K383A, phosphothreonine at 169 (by Cak1)); experiment: as above
T4 construct: Clb2 of S. cerevisiae, aa 187-491, phosphate-pocket mutant; Cdk1 (Cdc28) of S. cerevisiae, made as a GST-TEV-Cdk1 fusion; formed before Cks1 was added; also called clb2-pp Clb2-Cdk1; PP mutant Clb2-Cdk1; source: assembled from purified Clb2-pp (E. coli) and purified Cak1-phosphorylated Cdk1 (Sf9), desalted

[3] = molecular target: T1, Clb2 (aa 187-491), wild-type; experiment: reconstitution of an active kinase complex by mixing; 10.5 uM Cak1-phosphorylated Cdk1 and 10.5 uM Clb2, on ice 60 min, then desalted; the complex is known by its kinase activity only
[4] = molecular target: T2, Clb2-pp mutant (R366A, R379A, K383A), …; experiment: as above

T4 sequence (P00546 whole entry, stated change not applied, the tested form may be a part, one chain of several): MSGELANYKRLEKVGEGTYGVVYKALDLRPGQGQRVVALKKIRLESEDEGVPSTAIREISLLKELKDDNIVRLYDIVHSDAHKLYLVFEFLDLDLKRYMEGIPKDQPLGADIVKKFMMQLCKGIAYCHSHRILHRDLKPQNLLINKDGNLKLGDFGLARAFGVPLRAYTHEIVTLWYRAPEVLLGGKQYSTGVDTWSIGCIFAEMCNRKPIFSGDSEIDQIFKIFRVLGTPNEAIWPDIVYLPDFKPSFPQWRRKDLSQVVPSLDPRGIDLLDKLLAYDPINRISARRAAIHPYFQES
T3 sequence (P00546 whole entry, the tested form may be a part, one chain of several): as the sequence (P00546 whole entry, stated change not applied, the tested form may be a part, one chain of several) above

Binder | binding result [1] | binding result [2] | binding result [3] | binding result [4]
B1 | binds | binds |  | 
B2 | binds | binds |  | 
B3 |  |  | binds | binds
